In data set [1] the test system is HeLa Kyoto. Description: melting temperature (median over replicates), in situ; higher = more thermally stable.
Data set [2] relates to HeLa Kyoto. The data set is described as follows: solubility change mitosis vs G1/S (difference of NP-40 vs SDS log2 ratios) (log2 ratio difference); higher = more soluble in mitosis.
Data set [3] relates to HeLa Kyoto. The data set is described as follows: thermal stability score vs G1/S (z-score of summed log2 fold changes over temperatures); higher = more thermally stable than in G1/S.
The test system of data set [4] is HeLa Kyoto. The data set is described as follows: solubility in G1/S (NP-40 vs SDS abundance) (log2 ratio); higher = more soluble. The following applies: cell cycle stage: G1/S.
The mark [5] stands for this setting: cell cycle stage: early G1 (4.5 h after nocodazole release).

These results are taken from the supplement of paper PMC5998384.
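Throughout, for melting temperature (median over replicates), in situ: HeLa Kyoto cells synchronized by double thymidine or nocodazole block, proteins quantified by TMT10plex mass spectrometry, three independent biological replicates.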
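Throughout, for solubility change mitosis vs G1/S (difference of NP-40 vs SDS log2 ratios): synchronized HeLa Kyoto cells (double thymidine block for G1/S, nocodazole release for mitosis), protein amounts in NP-40 versus SDS lysates quantified by mass spectrometry, three biological replicates.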
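Throughout, for solubility in G1/S (NP-40 vs SDS abundance): HeLa Kyoto cells arrested at G1/S by double thymidine block, proteins quantified by TMT10plex mass spectrometry in mild NP-40 versus SDS extracts, three biological replicates.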
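Throughout, for thermal stability score vs G1/S (z-score of summed log2 fold changes over temperatures): synchronized HeLa Kyoto cells, proteins quantified by TMT10plex mass spectrometry, three biological replicates, mitosis taken 0.5 h after nocodazole release, G1/S directly after double thymidine block.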

Consider “MSPKRIAKRRSPPADAIPKSKKVKVSHRSHSTEPGLVLTLGQGDVGQLGLGENVMERKKPALVSIPEDVVQAEAGGMHTVCLSKSGQVYSFGCNDEGALGRDTSVEGSEMVPGKVELQEKVVQVSAGDSHTAALTDDGRVFLWGSFRDNNGVIGLLEPMKKSMVPVQVQLDVPVVKVASGNDHLVMLTADGDLYTLGCGEQGQLGRVPELFANRGGRQGLERLLVPKCVMLKSRGSRGHVRFQDAFCGAYFTFAISHEGHVYGFGLSNYHQLGTPGTESCFIPQNLTSFKNSTKSWVGFSGGQHHTVCMDSEGKAYSLGRAEYGRLGLGEGAEEKSIPTLISRLPAVSSVACGASVGYAVTKDGRVFAWGMGTNYQLGTGQDEDAWSPVEMMGKQLENRVVLSVSSGGQHTVLLVKDKEQS [RCC1]”, for which the melting temperature in the data set on HeLa Kyoto [1] (cell cycle stage: G1/S) was 48 °C; with HeLa Kyoto [1] (cell cycle stage: mitosis), 49.1 °C. Besides, the “solubility change mitosis (log2)” value with HeLa Kyoto [2] came to 0.0534. In addition, the thermal stability score was 1.88 in the data set with HeLa Kyoto [3] (setting [5]) and 3.04 in the data set on HeLa Kyoto [3] (cell cycle stage: mitosis). Moreover, in the data set with HeLa Kyoto [4], the “solubility in G1/S (log2)” value is -0.0854.

As for “MSPPSPGRRREQRRPRAAATMATPLPGRAGGPATPLSPTRLSRLQEKEELRELNDRLAHYIDRVRALELENDRLLLKISEKEEVTTREVSGIKALYESELADARRVLDETARERARLQIEIGKLRAELDEVNKSAKKREGELTVAQGRVKDLESLFHRSEVELAAALSDKRGLESDVAELRAQLAKAEDGHAVAKKQLEKETLMRVDLENRCQSLQEELDFRKSVFEEEVRETRRRHERRLVEVDSSRQQEYDFKMAQALEELRSQHDEQVRLYKLELEQTYQAKLDSAKLSSDQNDKAASAAREELKEARMRLESLSYQLSGLQKQASAAEDRIRELEEAMAGERDKFRKMLDAKEQEMTEMRDVMQQQLAEYQELLDVKLALDMEINAYRKLLEGEEERLKLSPSPSSRVTVSRATSSSSGSLSATGRLGRSKRKRLEVEEPLGSGPSVLGTGTGGSGGFHLAQQASASGSVSIEEIDLEGKFVQLKNNSDKDQSLGNWRIKRQVLEGEEIAYKFTPKYILRAGQMVTVWAAGAGVAHSPPSTLVWKGQSSWGTGESFRTVLVNADGEEVAMRTVKKSSVMRENENGEEEEEEAEFGEEDLFHQQGDPRTTSRGCYVM [LMNB2]”, the melting temperature with HeLa Kyoto [1] (cell cycle stage: G1/S) is 51.4 °C; in the data set on HeLa Kyoto [1] (cell cycle stage: mitosis) it was 50.3 °C. Further, the “solubility change mitosis (log2)” value in the data set with HeLa Kyoto [2] was determined as 1.67. The thermal stability score with HeLa Kyoto [3] (setting [5]) is -7.21; with HeLa Kyoto [3] (cell cycle stage: mitosis), -6.08. Moreover, the “solubility in G1/S (log2)” value in the data set on HeLa Kyoto [4] is -1.66.

Consider “MSPTPPLFSLPEARTRFTKSTREALNNKNIKPLLSTFSQVPGSENEKKCTLDQAFRGILEEEIINHSSCENVLAIISLAIGGVTEGICTASTPFVLLGDVLDCLPLDQCDTIFTFVEKNVATWKSNTFYSAGKNYLLRMCNDLLRRLSKSQNTVFCGRIQLFLARLFPLSEKSGLNLQSQFNLENVTVFNTNEQESTLGQKHTEDREEGMDVEEGEMGDEEAPTTCSIPIDYNLYRKFWSLQDYFRNPVQCYEKISWKTFLKYSEEVLAVFKSYKLDDTQASRKKMEELKTGGEHVYFAKFLTSEKLMDLQLSDSNFRRHILLQYLILFQYLKGQVKFKSSNYVLTDEQSLWIEDTTKSVYQLLSENPPDGERFSKMVEHILNTEENWNSWKNEGCPSFVKERTSDTKPTRIIRKRTAPEDFLGKGPTKKILMGNEELTRLWNLCPDNMEACKSETREHMPTLEEFFEEAIEQADPENMVENEYKAVNNSNYGWRALRLLARRSPHFFQPTNQQFKSLPEYLENMVIKLAKELPPPSEEIKTGEDEDEEDNDALLKENESPDVRRDKPVTGEQIEVFANKLGEQWKILAPYLEMKDSEIRQIECDSEDMKMRAKQLLVAWQDQEGVHATPENLINALNKSGLSDLAESLTNDNETNS [THOC1]”, for which the melting temperature in the data set on HeLa Kyoto [1] (cell cycle stage: G1/S) amounted to 49.7 °C; with HeLa Kyoto [1] (cell cycle stage: mitosis) it was 49.5 °C. In addition, in the data set on HeLa Kyoto [2], the “solubility change mitosis (log2)” value came out at 0.218. The thermal stability score with HeLa Kyoto [3] (setting [5]) was 0.442; in the data set with HeLa Kyoto [3] (cell cycle stage: mitosis), 3.3. Moreover, the “solubility in G1/S (log2)” value in the data set with HeLa Kyoto [4] is -0.2.

“MSPTQWDFPVELCCRPMAFVTLTGLDVVYNAVHRAVWDAFCANRRADRVPISFKVLPGDHEYPKCRPKRTSYEWYIPKGILKTGWMNKHLNLVPALVVVFYELDWDEPQWKEKQSECATRVEIVRQSLQGRNTKVAVVLIQKKTPLPPGEDVIASERAAALCNACELSGKSLFVLPHTDHLVGYIIRLENAFYEHAQTYYYTEIRRVKSHKEFLNKTTHQLLFVRHQFKIAFFSELKQDTQNALKNYRTAYNLVHELRAHETNILEIKTMAGFINYKICRLCFQHNTPLDAIAQFRKHIDLCKKKIGSAELSFEHDAWMSKQFQAFGDLFDEAIKLGLTAIQTQNPGFYYQQAAYYAQERKQLAKTLCNHEASVMYPNPDPLETQTGVLDFYGQRSWRQGILSFDLSDPEKEKVGILAIQLKERNVVHSEIIITLLSNAVAQFKKYKCPRMKSHLMVQMGEEYYYAKDYTKALKLLDYVMCDYRSEGWWTLLTSVLTTALKCSYLMAQLKDYITYSLELLGRASTLKDDQKSRIEKNLINVLMNESPDPEPDCDILAVKTAQKLWADRISLAGSNIFTIGVQDFVPFVQCKAKFHAPSFHVDVPVQFDIYLKADCPHPIRFSKLCVSFNNQEYNQFCVIEEASKANEVLENLTQGKMCLVPGKTRKLLFKFVAKTEDVGKKIEITSVDLALGNETGRCVVLNWQGGGGDAASSQEALQAARSFKRRPKLPDNEVHWDSIIIQASTMIISRVPNISVHLLHEPPALTNEMYCLVVTVQSHEKTQIRDVKLTAGLKPGQDANLTQKTHVTLHGTELCDESYPALLTDIPVGDLHPGEQLEKMLYVRCGTVGSRMFLVYVSYLINTTVEEKEIVCKCHKDETVTIETVFPFDVAVKFVSTKFEHLERVYADIPFLLMTDLLSASPWALTIVSSELQLAPSMTTVDQLESQVDNVILQTGESASECFCLQCPSLGNIEGGVATGHYIISWKRTSAMENIPIITTVITLPHVIVENIPLHVNADLPSFGRVRESLPVKYHLQNKTDLVQDVEISVEPSDAFMFSGLKQIRLRILPGTEQEMLYNFYPLMAGYQQLPSLNINLLRFPNFTNQLLRRFIPTSIFVKPQGRLMDDTSIAAA [TRAPPC11]”: the melting temperature with HeLa Kyoto [1] (cell cycle stage: G1/S) was 50.7 °C; in the data set on HeLa Kyoto [1] (cell cycle stage: mitosis), 50.3 °C. The “solubility change mitosis (log2)” value in the data set on HeLa Kyoto [2] is -0.216. Further, the values for the thermal stability score with HeLa Kyoto [3] (setting [5]) and with HeLa Kyoto [3] (cell cycle stage: mitosis) were 0.0283 and -0.012, respectively. In the data set with HeLa Kyoto [4], the “solubility in G1/S (log2)” value is -0.13.
